{
  "source": "patent US20050058649A1",
  "about": "(published 2005)",
  "binders": {"B1": {"name": "anti-PLA2 mAb 1.18 (antibody, IgG2, V domains shown)", "VH": "EVQLVQSGAEVKKPGESLKISCKGSGYSFTNYWINWVRQMPGKGLEWMGIIYPGDSDTRYSPSFQGQVTISADKSISTAYLQWSSLKASDTAMYYCARHRLGFDYWGQGTLVTVSS", "VL": "DIQMTQSPSSLSASVGDRVTITCRASQGIRNDLDWCQQKPGKAPKRLIYAASSLQSGVPSRFSGSGSGTEFTLTISSLQPEDFATYYCLQHNNYPPTFGQGTKVEIKR"}, "B2": {"name": "anti-PLA2 mAb 1.21 (antibody, IgG2, V domains shown)", "VH": "EVQLVQSGAEVKKPGESLKISCKGSGYRFTSYWISWVRQMPGKGLEWMGIIYPGDSDTRYSPSFQGQVTISADKSISTAYLQWSSLKASDTAMYYCARHREAFDIWGQGTMVTVSS", "VL": "not shown"}, "B3": {"name": "anti-PLA2 mAb 2.15 (antibody, IgG4, V domains shown)", "VH": "QVQLVESGGGVVQPGRSLRLSCAASGFTFSSYGMHWVRQAPGKGLEWVAVIWYDGSNKYYADSVKGRFTISRDNSKNTLYLQMNSLRAEDTAVYYCARRDWNYAFDIWGQGTMVTVSS", "VL": "DIQMTQSPSSLSASVGDRVTITCRASQSISNYLNWYQQKPGKAPKFLIYAASSLQSGAPSRFSGSGSGTDFTLTISSLQPEDFATYYCQQSYSTPITFGQGTRLEIKR"}, "B4": {"name": "anti-PLA2 mAb 2.23 (antibody, IgG4, V domains shown)", "VH": "QVQLEESGGGVVQPGRSLRLSCAASGFTFSSYGMHWVRQGPGKGLEWVAVIWYDGSNKKYADSVKGRFTISRDNSKNTLYLQMNSLRAEDTAVYYCARDGPIFGVVMGYWGQGTLVTVSS", "VL": "DIQMTQSPSSLSASVGDRVTITCRTSQSISNYLNWFQQKPGKAPILLIYAASSLQSGVPSRFSGSGSGTDFTLTISSLQPEDFATYYCHQSYSIPITFGQGTRLEIKR"}, "B5": {"name": "anti-PLA2 mAb 2.19 (antibody, IgG4, V domains shown)", "VH": "QVQLVESGGGVVQPGRSLRLSCAASGFTFSSYGMHWVRQAPGKGLEWVAAIWYDGSNKWYADSVKGRFTISRDNSKNTLYLQMNSLRAEDTAVYYCARGGTGTPGAFDIWGQGTMVTVSS", "VL": "not shown", "notes": "also called 2.19.1"}, "B6": {"name": "anti-PLA2 mAb 1.27 (antibody, IgG2, V domains shown)", "VH": "EVQLVQSGAEVKKPGESLKISCKGSGYSFTSYWIGWVRQMPGKGLEWMGIIYPGDSDTRYSPSFQGQVTISADKSISTAYLQWSSLKASDTAMYYCARSWTYGMDVWGQGTTVTVSS", "VL": "EIVLTQSPGTLSLSPGERATLSCRASQSVRSNYLTWYQQKPGQAPRLLIYGASTRATGIPDRFSGSGSGTDFTLTISRLEPEDFAVYYCQQYGSSPLTFGGGTKVEIKR"}, "B7": {"name": "anti-PLA2 mAb 1.14 (antibody, IgG2, V domains shown)", "VH": "EVQLVQSGAEVKKPGESLKISCKGSGYSITSYWIGWVRQMPGKGLEWMGIIYPGDSDTRYSPSFQGQVTISADKSISTAYLQWSSLKASDTAMYYCARHSGSSFDYWGQGTLVTVSS", "VL": "not shown"}, "B8": {"name": "anti-PLA2 mAb 1.7 (antibody, IgG2, V domains shown)", "VH": "EVQLVQSGAEVKKPGESLKISCKGSGYSFISYWIGWVRQMPGKGLEWMGIIYPGDSDTRYSPSFQGQVTISADKSISTAYLQWSSLKASDTAMYYCARSWTYALDVWGQGTAVTVSS", "VL": "EIVLTQSPGTLSLSPGERATLSCRPSQSVRSNYLTWYQQKPGQAPRLLIYGASTRATGIPDRFSGSGSGTDFTLTVSRLEPEDFAVYYCQQYGSSPLTFGGGTKVEIKR", "notes": "also called 1.7.1"}, "B9": {"name": "anti-PLA2 mAb 1.5 (antibody, IgG2, V domains shown)", "VH": "EVQLVQSGAEVKKPGESLKISCKGSGYSFISYWIGWVRQMPGKGLEWMGIIYPGDSDTRYSPSFQGQVTISADKSISTAYLQWSSLKASDTAMYYCARHWSYGMDVWGQGTTVTVSS", "VL": "EIVLTQSPGTLSLSPGERATLSCRASQSVRSGYLAWYQQRPGQAPRFLIYGASSRATGIPDRFSGSGSGTDFTLTISRLEPEDFAVYYCQQYGSSPLTFGGGTKVEIKR", "notes": "also called 1.5.1"}, "B10": {"name": "anti-PLA2 mAb 2.7 (antibody, IgG4, V domains shown)", "VH": "GVQLVQSGAEVKKPGESLKISCKGSGYSFTNYWIGWVRQMPGKGLEWMGIIYPGDSDTRYSPSFQGQVTISADKSISTAYLQWSSLKASDTAIYYCARGGVGAFDIWGQGTMVTVSS", "VL": "EIVLTQSPGTLSLSPGERATLSCRASQIIRRSSLAWYQEKPGQAPRLLIYGASSRATGIPDRFSGSGSGTDFTLTISRLEPEDFAVYYCQQYGSSPPFTFGPGTKVDIKR", "notes": "also called 2.7.1"}},
  "key": {"phospholipase A2 (PLA2) [1]": {"molecular_target": "T1, phospholipase A2 (PLA2) (Homo sapiens (Human), UniProt O15496 43-165)", "T1 construct": "PLA2 as used in Biacore, MCAB binning, peptide scan and the purified-antibody functional assay; also called PLA2 antigen", "T1 sequence": "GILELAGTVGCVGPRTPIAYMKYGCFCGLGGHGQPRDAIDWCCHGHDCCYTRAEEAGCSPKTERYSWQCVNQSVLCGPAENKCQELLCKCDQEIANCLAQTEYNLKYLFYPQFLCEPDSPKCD", "assay": "Biacore 2000, captured Ab, global 1:1 fit", "procedure": "(§1) In the immobilization, HBS-P was used as the running buffer; in the binding studies, HBS-P, with 12 mg/mL of each BSA and dextran, was used as sample and running buffers.\nData were normalized based on the individual antibody capture levels and fit globally to a 1:1 interaction model."}, "phospholipase A2 (PLA2) [2]": {"molecular_target": "T1, phospholipase A2 (PLA2)", "assay": "Biacore 2000, Ab captured from supernatant, 300 nM PLA2", "procedure": "as §1\nBriefly, antibody supernatants were diluted 1/10 and antibodies were captured individually on the IgG surfaces. After a one-minute wash step, buffer and PLA2 (300 nM) were injected serially (one-minute association, five minute dissociation) over each surface. Capture levels were measured from −20 to 0 seconds and the surfaces were regenerated with a 6-second pulse of 100 mM H₃PO₄."}, "phospholipase A2 (PLA2) [3]": {"molecular_target": "T1, phospholipase A2 (PLA2)", "assay": "cell-based or functional assay"}},
  "data": [
    {"binder": "B1", "values": [
      {"measurement": "Kd", "setting": "phospholipase A2 (PLA2) [1]", "result": 50, "unit": "nM"},
      {"measurement": "koff", "setting": "phospholipase A2 (PLA2) [1]", "result": 0.00192, "unit": "s⁻¹"},
      {"measurement": "kon", "setting": "phospholipase A2 (PLA2) [1]", "result": 38600, "unit": "M⁻¹ s⁻¹"},
      {"measurement": "Response", "setting": "phospholipase A2 (PLA2) [2]", "result": 6, "unit": "RU"},
      {"measurement": "IC50 of inhibition of PLA2 enzyme activity (12-point dose curve)", "setting": "phospholipase A2 (PLA2) [3]", "result": 0.78, "unit": "nM"}
    ]},
    {"binder": "B2", "values": [
      {"measurement": "Kd", "setting": "phospholipase A2 (PLA2) [1]", "result": 11, "unit": "nM"},
      {"measurement": "koff", "setting": "phospholipase A2 (PLA2) [1]", "result": 0.00063, "unit": "s⁻¹"},
      {"measurement": "kon", "setting": "phospholipase A2 (PLA2) [1]", "result": 57100, "unit": "M⁻¹ s⁻¹"},
      {"measurement": "Response", "setting": "phospholipase A2 (PLA2) [2]", "result": 61, "unit": "RU"},
      {"measurement": "IC50 of inhibition of PLA2 enzyme activity (12-point dose curve)", "setting": "phospholipase A2 (PLA2) [3]", "result": 3.64, "unit": "nM"}
    ]},
    {"binder": "B3", "values": [
      {"measurement": "Kd", "setting": "phospholipase A2 (PLA2) [1]", "result": 100, "unit": "nM"},
      {"measurement": "koff", "setting": "phospholipase A2 (PLA2) [1]", "result": 0.000902, "unit": "s⁻¹"},
      {"measurement": "kon", "setting": "phospholipase A2 (PLA2) [1]", "result": 8880, "unit": "M⁻¹ s⁻¹"},
      {"measurement": "Response", "setting": "phospholipase A2 (PLA2) [2]", "result": 37, "unit": "RU"},
      {"measurement": "IC50 of inhibition of PLA2 enzyme activity (12-point dose curve)", "setting": "phospholipase A2 (PLA2) [3]", "result": 14.3, "unit": "nM"}
    ]},
    {"binder": "B4", "values": [
      {"measurement": "Kd", "setting": "phospholipase A2 (PLA2) [1]", "result": 120, "unit": "nM"},
      {"measurement": "koff", "setting": "phospholipase A2 (PLA2) [1]", "result": 0.000969, "unit": "s⁻¹"},
      {"measurement": "kon", "setting": "phospholipase A2 (PLA2) [1]", "result": 8270, "unit": "M⁻¹ s⁻¹"},
      {"measurement": "Response", "setting": "phospholipase A2 (PLA2) [2]", "result": 7, "unit": "RU"},
      {"measurement": "IC50 of inhibition of PLA2 enzyme activity (12-point dose curve)", "setting": "phospholipase A2 (PLA2) [3]", "result": 14.4, "unit": "nM"}
    ]},
    {"binder": "B5", "values": [
      {"measurement": "Kd", "setting": "phospholipase A2 (PLA2) [1]", "result": 6.2, "unit": "nM"},
      {"measurement": "koff", "setting": "phospholipase A2 (PLA2) [1]", "result": 0.000115, "unit": "s⁻¹"},
      {"measurement": "kon", "setting": "phospholipase A2 (PLA2) [1]", "result": 18600, "unit": "M⁻¹ s⁻¹"},
      {"measurement": "Response", "setting": "phospholipase A2 (PLA2) [2]", "result": 52, "unit": "RU"}
    ]},
    {"binder": "B6", "values": [
      {"measurement": "Kd", "setting": "phospholipase A2 (PLA2) [1]", "result": 27, "unit": "nM"},
      {"measurement": "koff", "setting": "phospholipase A2 (PLA2) [1]", "result": 0.000922, "unit": "s⁻¹"},
      {"measurement": "kon", "setting": "phospholipase A2 (PLA2) [1]", "result": 34500, "unit": "M⁻¹ s⁻¹"},
      {"measurement": "Response", "setting": "phospholipase A2 (PLA2) [2]", "result": 78, "unit": "RU"},
      {"measurement": "IC50 of inhibition of PLA2 enzyme activity (12-point dose curve)", "setting": "phospholipase A2 (PLA2) [3]", "result": 9.4, "unit": "nM"}
    ]},
    {"binder": "B7", "values": [
      {"measurement": "Kd", "setting": "phospholipase A2 (PLA2) [1]", "result": 18, "unit": "nM"},
      {"measurement": "koff", "setting": "phospholipase A2 (PLA2) [1]", "result": 0.000791, "unit": "s⁻¹"},
      {"measurement": "kon", "setting": "phospholipase A2 (PLA2) [1]", "result": 43900, "unit": "M⁻¹ s⁻¹"},
      {"measurement": "Response", "setting": "phospholipase A2 (PLA2) [2]", "result": 74, "unit": "RU"},
      {"measurement": "IC50 of inhibition of PLA2 enzyme activity (12-point dose curve)", "setting": "phospholipase A2 (PLA2) [3]", "result": 3.9, "unit": "nM"}
    ]},
    {"binder": "B8", "values": [
      {"measurement": "Kd", "setting": "phospholipase A2 (PLA2) [1]", "result": 9.5, "unit": "nM"},
      {"measurement": "koff", "setting": "phospholipase A2 (PLA2) [1]", "result": 0.000451, "unit": "s⁻¹"},
      {"measurement": "kon", "setting": "phospholipase A2 (PLA2) [1]", "result": 47400, "unit": "M⁻¹ s⁻¹"},
      {"measurement": "Response", "setting": "phospholipase A2 (PLA2) [2]", "result": 118, "unit": "RU"},
      {"measurement": "IC50 of inhibition of PLA2 enzyme activity (12-point dose curve)", "setting": "phospholipase A2 (PLA2) [3]", "result": 4.73, "unit": "nM"}
    ]},
    {"binder": "B9", "values": [
      {"measurement": "Kd", "setting": "phospholipase A2 (PLA2) [1]", "result": 15, "unit": "nM"},
      {"measurement": "koff", "setting": "phospholipase A2 (PLA2) [1]", "result": 0.000713, "unit": "s⁻¹"},
      {"measurement": "kon", "setting": "phospholipase A2 (PLA2) [1]", "result": 48700, "unit": "M⁻¹ s⁻¹"},
      {"measurement": "Response", "setting": "phospholipase A2 (PLA2) [2]", "result": 70, "unit": "RU"},
      {"measurement": "IC50 of inhibition of PLA2 enzyme activity (12-point dose curve)", "setting": "phospholipase A2 (PLA2) [3]", "result": 2.36, "unit": "nM"}
    ]},
    {"binder": "B10", "values": [
      {"measurement": "Kd", "setting": "phospholipase A2 (PLA2) [1]", "result": 10, "unit": "nM"},
      {"measurement": "koff", "setting": "phospholipase A2 (PLA2) [1]", "result": 0.00104, "unit": "s⁻¹"},
      {"measurement": "kon", "setting": "phospholipase A2 (PLA2) [1]", "result": 99600, "unit": "M⁻¹ s⁻¹"},
      {"measurement": "Response", "setting": "phospholipase A2 (PLA2) [2]", "result": 126, "unit": "RU"}
    ]}
  ]
}
